Data as given in paper doi:10.1101/2020.07.03.182295 (bioRxiv, 2020).

Molecular target: the molecule itself
Experiment: SEC

B1: R54C αA-crystallin (recombinant human) (natural protein)
chain: MDVTIQHPWFKRTLGPFYPSRLFDQFFGEGLFEYDLLPFLSSTISPYYRQSLFCTVLDSGISEVRSDRDKFVIFLDVKHFSPEDLTVKVQDDFVEIHGKHNERQDDHGYISREFHRRYRLPSNVDQSALSCSLSADGMLTFCGPKIQTGLDATHAERAIPVSREEKPTSAPSS
B1: binds.
